Target: T1, Ir-CPI (Ixodes ricinus Contact Phase Inhibitor), recombinant, without its peptide signal
T1 chain: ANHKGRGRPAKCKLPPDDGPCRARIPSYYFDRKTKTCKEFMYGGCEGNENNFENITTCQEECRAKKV

B1: factor XIIa (protein)
chain: IPPWEAPKEHKYKAEEHTVVLTVTGEPCHFPFQYHRQLYHKCTHKGRPGPQPWCATTPNFDQDQRWGYCLEPKKVKDHCSKHSPCQKGGTCVNMPSGPHCLCPQHLTGNHCQKEKCFEPQLLRFFHKNEIWYRTEQAAVARCQCKGPDAHCQRLASQACRTNPCLHGGRCLEVEGHRLCHCPVGYTGAFCDVDTKASCYDGRGLSYRGLARTTLSGAPCQPWASEATYRNVTAEQARNWGLGGHAFCRNPDNDIRPWCFVLNRDRLSWEYCDLAQCQTPTQAAPPTPVSPRLHVPLMPAQPAPPKPQPTTRTPPQSQTPGALPAKREQPPSLTRNGPLSCGQRLRKSLSSMTRVVGGLVALRGAHPYIAALYWGHSFCAGSLIAPCWVLTAAHCLQDRPAPEDLTVVLGQERRNHSCEPCQTLAVRSYRLHEAFSPVSYQHDLALLRLQEDADGSCALLSPYVQPVCLPSGAARPSETTLCQVAGWGHQFEGAEEYASFLQEAQVPFLSLERCSAPDVHGSSILPGMLCAGFLEGGTDACQGDSGGPLVCEDQAAERRLTLQGIISWGSGCGDRNKPGVYTDVAYYLAWIREHTVS
  activation of factor XI into factor XIa by factor XIIa, reconstituted system with purified factors, chromogenic substrate: Ir-CPI inhibits ... the activation of factor XI into factor XIa by factor XIIa
  activation of prekallikrein into kallikrein by factor XIIa, reconstituted system with purified factors, chromogenic substrate: Ir-CPI inhibits the activation of prekallikrein into kallikrein by factor XIIa
  amidolytic activity (chromogenic substrate S-2302), protease preincubated with Ir-CPI at 1:5 molar ratio: The results obtained did not show any effect of Ir-CPI protein on the amidolytic activity of these factors

B2: factor Xa (protein)
chain 1: ANSFLEEMKKGHLERECMEETCSYEEAREVFEDSDKTNEFWNKYKDGDQCETSPCQNQGKCKDGLGEYTCTCLEGFEGKNCELFTRKLCSLDNGDCDQFCHEEQNSVVCSCARGYTLADNGKACIPTGPYPCGKQTLER
chain 2: IVGGQECKDGECPWQALLINEENEGFCGGTILSEFYILTAAHCLYQAKRFKVRVGDRNTEQEEGGEAVHEVEVVIKHNRFTKETYDFDIAVLRLKTPITFRMNVAPACLPERDWAESTLMTQKTGIVSGFGRTHEKGRQSTRLKMLEVPYVDRNSCKLSSSFIITQNMFCAGYDTKQEDACQGDSGGPHVTRFKDTYFVTGIVSWGEGCARKGKYGIYTKVTAFLKWIDRSMKTRGLPKAKSHAPEVITSSPLK
  amidolytic activity (chromogenic substrate S-2222), protease preincubated with Ir-CPI at 1:5 molar ratio: The results obtained did not show any effect of Ir-CPI protein on the amidolytic activity of these factors

Reference: US20080219970
